One may read the Kd as the equilibrium constant for the complex coming apart.

One assay concerns the target recombinant SUMO1 (UniProt P63165 1-97). Kind of assay: ITC. Background: In ITC the heat of successive injections is recorded.
Another assay has as its target recombinant SUMO2 (UniProt P61956 1-95). Kind of assay: ITC.

recombinant SUMO1, sequence (P63165 1-97): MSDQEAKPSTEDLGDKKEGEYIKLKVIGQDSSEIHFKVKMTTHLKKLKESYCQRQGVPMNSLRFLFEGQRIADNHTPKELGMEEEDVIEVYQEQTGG
recombinant SUMO2, sequence (P61956 whole entry): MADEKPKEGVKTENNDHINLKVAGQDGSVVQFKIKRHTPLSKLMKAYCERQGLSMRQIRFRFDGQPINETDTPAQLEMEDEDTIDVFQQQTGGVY

B1: recombinant HERC2 ZZ domain (amino acids 2702–2755), WT (domain or fragment)
chain: IHPGVTCDGCQMFPINGSRFKCRNCDDFDFCETCFKTKKHNTRHTFGRINEPGQ
For B1, the Kd in the assay with recombinant SUMO1 is around 3 µM; in the assay with recombinant SUMO2, around 60 µM.
